Measurements from paper doi:10.1101/2022.01.11.475947.

Molecular target: prefusion-stabilized SARS-CoV-2 spike protein (S-clamp) (SARS-CoV-2)
Assay: SEC

Substance: prefusion-stabilized SARS-CoV-2 spike protein (S-clamp)
- stoichiometry N: 3
